In this assay the target is T1, Recombinant human A33 protein (human, UniProt Q99795 22-235, limits assumed).
T1 construct: Bought protein, immobilized on the sensor chip by amine coupling; also called human A33 antigen; A33 glycoprotein antigen
T1 sequence (looked up): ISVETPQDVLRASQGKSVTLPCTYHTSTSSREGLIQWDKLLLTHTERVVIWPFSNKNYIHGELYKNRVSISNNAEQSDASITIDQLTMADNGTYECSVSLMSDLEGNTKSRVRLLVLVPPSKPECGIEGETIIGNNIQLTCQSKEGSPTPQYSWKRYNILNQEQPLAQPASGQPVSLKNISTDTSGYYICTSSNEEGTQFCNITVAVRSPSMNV
As to the kind of experiment: SPR, Biacore T100; A33 immobilized by amine coupling, antibody as analyte, bivalent analyte model. The protocol:
Binding affinity was measured by Biacore T100.
Biacore T100 Biosensor, CMS sensor chip, and related reagents were purchased from GE Healthcare. Recombinant human A33 protein was purchased from Novoprotein. A BSA-(Y)-DOTA-Bn conjugate was prepared as described (Cheal et al., supra). A33 and DOTA antigens were immobilized using the Amino Coupling kit (GE Healthcare). Purified bispecific antibodies and control antibodies were analyzed, and data were fit to a bivalent analyte model using the Biacore T100 evaluation software as described (Cheal et al., supra).

B1: huA33-IgG1 (monospecific humanized antibody A33) (antibody, V domains shown)
VH: EVQLVESGGGLVKPGGSLRLSCAASGFAFSTYDMSWVRQAPGKRLEWVATISSGGSYTYYLDSVKGRFTISRDNAKNSLYLQMNSLRAEDTAVYYCAPTTVVPFAYWGQGTLVTVSS
VL: DIQMTQSQSSLSTSVGDRVTITCKASQNVRTVVAWYQQKPGKSPKTLIYLASNRHTGVPSRFSGSGSGTEFTLTISNVQPEDFADYFCLQHWSYPLTFGSGTKLEIKR
In the case of B1, the Kd is 1.71 nM, the koff was 0.00105 s⁻¹ and the kon came to 614000 M⁻¹ s⁻¹.

B2: huA33-C825 bispecific antibody (humanized A33 IgG1-murine C825 scFv) (bispecific antibody)
heavy: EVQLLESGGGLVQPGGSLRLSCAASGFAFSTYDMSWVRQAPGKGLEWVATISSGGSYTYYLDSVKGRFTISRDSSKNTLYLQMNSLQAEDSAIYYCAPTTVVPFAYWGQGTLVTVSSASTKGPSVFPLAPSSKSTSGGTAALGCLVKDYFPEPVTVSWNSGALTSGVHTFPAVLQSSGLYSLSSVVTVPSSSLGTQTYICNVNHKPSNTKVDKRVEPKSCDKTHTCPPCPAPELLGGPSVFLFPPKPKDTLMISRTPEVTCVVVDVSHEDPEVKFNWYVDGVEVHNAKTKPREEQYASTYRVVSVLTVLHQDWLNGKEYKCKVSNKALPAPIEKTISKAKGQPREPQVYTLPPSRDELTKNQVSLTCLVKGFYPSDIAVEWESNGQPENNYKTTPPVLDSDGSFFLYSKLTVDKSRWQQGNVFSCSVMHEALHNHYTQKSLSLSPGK
light: DIQMTQSPSSLSVSVGDRVTITCKASQNVRTVVAWYQQKPGLAPKTLIYLASNRHTGVPSRFSGSGSGTDFTFTISSLQPEDIATYFCQQHWSYPLTFGQGTKVEVKRTVAAPSVFIFPPSDEQLKSGTASVVCLLNNFYPREAKVQWKVDNALQSGNSQESVTEQDSKDSTYSLSSTLTLSKADYEKHKVYACEVTHQGLSSPVTKSFNRGECGGGGSGGGGSASHVKLQESGPGLVQPSQSLSLTCTVSGFSLTDYGVHWVRQSPGKGLEWLGVIWSGGGTAYNTALISRLNIYRDNSKNQVFLEMNSLQAEDTAMYYCARRGSYPYNYFDAWGCGTTVTVSSGGGGSGGGGSGGGGSQAVVIQESALTTPPGETVTLTCGSSTGAVTASNYANWVQEKPDHCFTGLIGGHNNRPPGVPARFSGSLIGDKAALTIAGTQTEDEAIYFCALWYSDHWVIGGGTRLTVLG
notes: IgG-scFv format: the anti-DOTA-Bn scFv C825 is linked to the carboxyl end of the huA33 light chain; also called anti-A33/anti-DOTA-Bn (metal) bispecific antibody
As for B2, the Kd was 63.5 nM, the koff turned out to be 0.00581 s⁻¹ and the kon stood at 91500 M⁻¹ s⁻¹.

By koff is commonly meant the first-order rate constant of dissociation. Broadly, the kon is the rate constant with which the complex forms.
